Experimental findings from US20140127759A1 (TORAY INDUSTRIES, published 2014) are described below.

In data set [1] the target is R170A/R220A/Y227F/E449R mutant β-glucosidase (Pyrococcus furiosus). The data set is described as follows: gel filtration (Superdex 200), oligomeric state.
Data set [2] deals with the molecule itself. Kind of data set: gel filtration (Superdex 200), self-association. The protocol: (§1) The molecular weights of the parent glucosidase and the mutants were determined by gel filtration using HiLood 26/60 Suuperdex 200 as the column, a 50 mM tris-hydrochloride (pH 8) and 150 mM sodium chloride as the buffer. The enzymes prepared in Example 2, Reference Example 1, and Example 9 were each added to the column and eluted with the buffer at a flow rate of 2 mL/min. The enzyme was detected by measuring absorbance at 280 nm. Ovoalbumin (44 kDa), conalbumin (75 kDa), aldolase (158 kDa), and ferritin (440 kDa) were used as molecular weight markers, and a calibration curve was drawn based on the elution time of each enzyme component. The molecular weights measured by gel filtration (observed molecular weights: kDa) and molecular weights estimated from the amino acid primary structures (estimated molecular weights: kDa) are summarized in Table 8.

Data set [3] concerns the molecule itself. Kind of data set: gel filtration (Superdex 200), oligomeric state. The protocol: as §1
Background: In gel filtration, larger molecules generally elute earlier.

Data set [4] concerns the molecule itself. Kind of data set: blue-native PAGE, self-association. The protocol: Whether the parent β-glucosidase and our β-glucosidases, R170A mutant, R170A/R220A mutant, and R170A/R220A/Y227F mutant, form stable tetramers or not was investigated by blue-native PAGE.
In the blue-native PAGE, 3-12% Native-PAGE Bis-Tris Gel (Invitrogen Corporation) was used. Electrophoresis samples were prepared by dissolving 1 μg of each of the parent β-glucosidase, R170A mutant, R170A/R220A mutant, and R170A/R220A/Y227F mutant in a sample buffer (50 mM imidazole (pH 7.0), 50 mM NaCl, 5 mM 6-aminohexanoic acid, 0.5% Coomassie G250, and 0.5% DDM). NativeMark protein standard (Invitrogen Corporation) was used as molecular weight markers. In the electrophoresis, 50 mM Tricine, 7.5 mM imidazole (pH 7.0), and Coomassie G250 were added to […], whereas 25 mM imidazole (pH 7.0) was added to the cathode side. The electrophoresis was performed at a constant voltage of 150 V for 100 minutes. After fixation of bands, G-250 was decolorized.

B1: R170A/R220A/Y227F/E449R mutant β-glucosidase (enzyme)
chain: AKFPKNFMFGYSWSGFQFEMGLPGSEVESDWWVWVHDKENIASGLVSGDLPENGPAYWHLYKQDHDIAEKLGMDCIRGGIEWARIFPKPTFDVKVDVEKDEEGNIISVDVPESTIKELEKIANMEALEHYRKIYSDWKERGKTFILNLYHWPLPLWIHDPIAVRKLGPDAAPAGWLDEKTVVEFVKFAAFVAYHLDDLVDMWSTMNEPNVVYNQGYINLASGFPPGFLSFEAAEKAKFNLIQAHIGAYDAIKEYSEKSVGVIYAFAWHDPLAEEYKDEVEEIRKKDYEFVTILHSKGKLDWIGVNYYSRLVYGAKDGHLVPLPGYGFMSERGGFAKSGRPASDFGWEMYPEGLENLLKYLNNAYELPMIITENGMADAADRYRPHYLVSHLKAVYNAMKEGADVRGYLHWSLTDNYEWAQGFRMRFGLVYVDFETKKRYLRPSALVFRRIATQKEIPEELAHLADLKFVTRK
Regarding B1, in data set [1], the Observed molecular weight (kDa) worked out at 92 kDa.

B2: R170A/R220A/Y227F/R448E mutant β-glucosidase (enzyme)
chain: AKFPKNFMFGYSWSGFQFEMGLPGSEVESDWWVWVHDKENIASGLVSGDLPENGPAYWHLYKQDHDIAEKLGMDCIRGGIEWARIFPKPTFDVKVDVEKDEEGNIISVDVPESTIKELEKIANMEALEHYRKIYSDWKERGKTFILNLYHWPLPLWIHDPIAVRKLGPDAAPAGWLDEKTVVEFVKFAAFVAYHLDDLVDMWSTMNEPNVVYNQGYINLASGFPPGFLSFEAAEKAKFNLIQAHIGAYDAIKEYSEKSVGVIYAFAWHDPLAEEYKDEVEEIRKKDYEFVTILHSKGKLDWIGVNYYSRLVYGAKDGHLVPLPGYGFMSERGGFAKSGRPASDFGWEMYPEGLENLLKYLNNAYELPMIITENGMADAADRYRPHYLVSHLKAVYNAMKEGADVRGYLHWSLTDNYEWAQGFRMRFGLVYVDFETKKRYLRPSALVFEEIATQKEIPEELAHLADLKFVTRK
notes: start methionine not included; Estimated to be monomeric
Regarding B2, the binding result in data set [2] is on record as “no binding”. Moreover, the “Observed molecular weight (kDa)” value in data set [3] came to 70 kDa.

B3: R170A/R220A/Y227F/R448G mutant β-glucosidase (enzyme)
chain: AKFPKNFMFGYSWSGFQFEMGLPGSEVESDWWVWVHDKENIASGLVSGDLPENGPAYWHLYKQDHDIAEKLGMDCIRGGIEWARIFPKPTFDVKVDVEKDEEGNIISVDVPESTIKELEKIANMEALEHYRKIYSDWKERGKTFILNLYHWPLPLWIHDPIAVRKLGPDAAPAGWLDEKTVVEFVKFAAFVAYHLDDLVDMWSTMNEPNVVYNQGYINLASGFPPGFLSFEAAEKAKFNLIQAHIGAYDAIKEYSEKSVGVIYAFAWHDPLAEEYKDEVEEIRKKDYEFVTILHSKGKLDWIGVNYYSRLVYGAKDGHLVPLPGYGFMSERGGFAKSGRPASDFGWEMYPEGLENLLKYLNNAYELPMIITENGMADAADRYRPHYLVSHLKAVYNAMKEGADVRGYLHWSLTDNYEWAQGFRMRFGLVYVDFETKKRYLRPSALVFGEIATQKEIPEELAHLADLKFVTRK
notes: as for B2
Regarding B3, the binding result in data set [2] is on record as “no binding”. In addition, the “Observed molecular weight (kDa)” value in data set [3] worked out at 63 kDa.

B4: R170A/R220A mutant β-glucosidase (enzyme)
chain: AKFPKNFMFGYSWSGFQFEMGLPGSEVESDWWVWVHDKENIASGLVSGDLPENGPAYWHLYKQDHDIAEKLGMDCIRGGIEWARIFPKPTFDVKVDVEKDEEGNIISVDVPESTIKELEKIANMEALEHYRKIYSDWKERGKTFILNLYHWPLPLWIHDPIAVRKLGPDAAPAGWLDEKTVVEFVKFAAFVAYHLDDLVDMWSTMNEPNVVYNQGYINLASGFPPGYLSFEAAEKAKFNLIQAHIGAYDAIKEYSEKSVGVIYAFAWHDPLAEEYKDEVEEIRKKDYEFVTILHSKGKLDWIGVNYYSRLVYGAKDGHLVPLPGYGFMSERGGFAKSGRPASDFGWEMYPEGLENLLKYLNNAYELPMIITENGMADAADRYRPHYLVSHLKAVYNAMKEGADVRGYLHWSLTDNYEWAQGFRMRFGLVYVDFETKKRYLRPSALVFREIATQKEIPEELAHLADLKFVTRK
notes: start methionine not included; also called A170A/R220A mutant [sic]
On to B4, for which, in data set [4], the binding result is “binds”.

B5: R170A mutant β-glucosidase (enzyme)
chain: AKFPKNFMFGYSWSGFQFEMGLPGSEVESDWWVWVHDKENIASGLVSGDLPENGPAYWHLYKQDHDIAEKLGMDCIRGGIEWARIFPKPTFDVKVDVEKDEEGNIISVDVPESTIKELEKIANMEALEHYRKIYSDWKERGKTFILNLYHWPLPLWIHDPIAVRKLGPDAAPAGWLDEKTVVEFVKFAAFVAYHLDDLVDMWSTMNEPNVVYNQGYINLRSGFPPGYLSFEAAEKAKFNLIQAHIGAYDAIKEYSEKSVGVIYAFAWHDPLAEEYKDEVEEIRKKDYEFVTILHSKGKLDWIGVNYYSRLVYGAKDGHLVPLPGYGFMSERGGFAKSGRPASDFGWEMYPEGLENLLKYLNNAYELPMIITENGMADAADRYRPHYLVSHLKAVYNAMKEGADVRGYLHWSLTDNYEWAQGFRMRFGLVYVDFETKKRYLRPSALVFREIATQKEIPEELAHLADLKFVTRK
notes: start methionine not included in the entry
Take B5: in data set [4], the binding result is listed as “binds”.

B6: R170A/R220A/Y227F mutant β-glucosidase (enzyme)
chain: AKFPKNFMFGYSWSGFQFEMGLPGSEVESDWWVWVHDKENIASGLVSGDLPENGPAYWHLYKQDHDIAEKLGMDCIRGGIEWARIFPKPTFDVKVDVEKDEEGNIISVDVPESTIKELEKIANMEALEHYRKIYSDWKERGKTFILNLYHWPLPLWIHDPIAVRKLGPDAAPAGWLDEKTVVEFVKFAAFVAYHLDDLVDMWSTMNEPNVVYNQGYINLASGFPPGFLSFEAAEKAKFNLIQAHIGAYDAIKEYSEKSVGVIYAFAWHDPLAEEYKDEVEEIRKKDYEFVTILHSKGKLDWIGVNYYSRLVYGAKDGHLVPLPGYGFMSERGGFAKSGRPASDFGWEMYPEGLENLLKYLNNAYELPMIITENGMADAADRYRPHYLVSHLKAVYNAMKEGADVRGYLHWSLTDNYEWAQGFRMRFGLVYVDFETKKRYLRPSALVFREIATQKEIPEELAHLADLKFVTRK
notes: start methionine not included; Homodimer in crystal and by gel filtration; also called mutant (R170A/R220A/Y227F)
As to B6, the “Observed molecular weight (kDa)” value in data set [3] was determined as 129 kDa.

B7: parent β-glucosidase (Pyrococcus furiosus) (enzyme)
chain: AKFPKNFMFGYSWSGFQFEMGLPGSEVESDWWVWVHDKENIASGLVSGDLPENGPAYWHLYKQDHDIAEKLGMDCIRGGIEWARIFPKPTFDVKVDVEKDEEGNIISVDVPESTIKELEKIANMEALEHYRKIYSDWKERGKTFILNLYHWPLPLWIHDPIAVRKLGPDRAPAGWLDEKTVVEFVKFAAFVAYHLDDLVDMWSTMNEPNVVYNQGYINLRSGFPPGYLSFEAAEKAKFNLIQAHIGAYDAIKEYSEKSVGVIYAFAWHDPLAEEYKDEVEEIRKKDYEFVTILHSKGKLDWIGVNYYSRLVYGAKDGHLVPLPGYGFMSERGGFAKSGRPASDFGWEMYPEGLENLLKYLNNAYELPMIITENGMADAADRYRPHYLVSHLKAVYNAMKEGADVRGYLHWSLTDNYEWAQGFRMRFGLVYVDFETKKRYLRPSALVFREIATQKEIPEELAHLADLKFVTRK
notes: Recombinant, expressed in E. coli; Homotetramer in crystal and in solution; also called wild-type; parent glucosidase
As for B7, the “Observed molecular weight (kDa)” value in data set [3] was determined as 237 kDa.

B8: R170A/R220A/Y227F/E459G mutant β-glucosidase (enzyme)
chain: AKFPKNFMFGYSWSGFQFEMGLPGSEVESDWWVWVHDKENIASGLVSGDLPENGPAYWHLYKQDHDIAEKLGMDCIRGGIEWARIFPKPTFDVKVDVEKDEEGNIISVDVPESTIKELEKIANMEALEHYRKIYSDWKERGKTFILNLYHWPLPLWIHDPIAVRKLGPDAAPAGWLDEKTVVEFVKFAAFVAYHLDDLVDMWSTMNEPNVVYNQGYINLASGFPPGFLSFEAAEKAKFNLIQAHIGAYDAIKEYSEKSVGVIYAFAWHDPLAEEYKDEVEEIRKKDYEFVTILHSKGKLDWIGVNYYSRLVYGAKDGHLVPLPGYGFMSERGGFAKSGRPASDFGWEMYPEGLENLLKYLNNAYELPMIITENGMADAADRYRPHYLVSHLKAVYNAMKEGADVRGYLHWSLTDNYEWAQGFRMRFGLVYVDFETKKRYLRPSALVFREIATQKEIPEGLAHLADLKFVTRK
notes: as for B2
With B8, the binding result in data set [2] is “no binding”. Further, the “Observed molecular weight (kDa)” value in data set [3] amounted to 50 kDa.
